Each block holds one compound with its values, some of them ahead of it.
Experiments:
[1] = biological target: 5-TAMRA labeled BAK-BH3 peptide; assay: FLAMBE (fluorescence polarisation); settings: BAKTAMRA 50 nM, read at 60 min, read off a plot
BAX [2] = biological target: T1, BAX (Homo sapiens, UniProt Q07812); assay: microscale thermophoresis; type: binding; set-up: recombinant human BAX WT
BAX [3] = biological target: T1, BAX; assay: 1H-15N HSQC NMR chemical shift perturbation; MST; type: binding; set-up: 15N-labeled BAX WT
BAX^2S = biological target: T2, BAX^2S (Homo sapiens, UniProt Q07812, C62S/C126S); assay: thermal shift, FLAMBE and LUV permeabilization with purified BAX^2S (activation); type: biochemical
T2 construct: recombinant human BAX, cysteine-replacement mutant
T2 sequence (Q07812 whole entry C62S/C126S): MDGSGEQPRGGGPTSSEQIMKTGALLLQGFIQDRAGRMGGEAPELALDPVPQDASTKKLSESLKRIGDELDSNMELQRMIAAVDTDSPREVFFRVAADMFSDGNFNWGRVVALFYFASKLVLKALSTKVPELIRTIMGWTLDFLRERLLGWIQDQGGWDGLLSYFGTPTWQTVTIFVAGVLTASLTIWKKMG

BAX [4] = biological target: T1, BAX; assay: microscale thermophoresis; also 1H-15N HSQC NMR, FLAMBE, LUV permeabilization; type: binding; set-up: recombinant human BAX, without a tag or exogenous residues (Alexa Fluor 647-labeled for MST)

T1 sequence (Q07812 whole entry): as the sequence (Q07812 whole entry C62S/C126S) above, with S62C, S126C counted along it

Compound: CCCCCCCC/C=C/C=O [2t11, 2t-undecenal]
microscale thermophoresis (BAX [2]): When subjected to MST, BAX^WT exhibited altered thermophoresis with each of the alkenals

Compound: CCCCCCCCC/C=C/C=O [2t12, 2t-dodecenal]
microscale thermophoresis (BAX [2]): When subjected to MST, BAX^WT exhibited altered thermophoresis with each of the alkenals

Compound: CCCCCC/C=C/C=O [2t9, 2t-nonenal]
1H-15N HSQC NMR chemical shift perturbation; MST (BAX [3]): nonenal and especially pentenal interacted with several accessible regions of BAX

Compound: CCCCCCCCCCCCC/C=C/C=O [2t16, 2-trans-hexadecenal]
thermal shift, FLAMBE and LUV permeabilization with purified BAX^2S (activation) (BAX^2S): BAX^2S remained sensitive to hexadecenal-mediated changes in melting temperature, pore formation, and synergy with BIM‑BH3 peptide | EC50 (BAX [4]): 0.182 µM

Now from value to compound:

response ([1]; BAXP168G 65 nM, 2t16 3 μM, no BIM-BH3): 240 mP | response ([1]; BAXP168G 65 nM, BIM-BH3 0.15 μM, 2t16 3 μM): 300 mP | response ([1]; BAXP168G 65 nM, BIM-BH3 0.15 μM, no 2t16): 310 mP | response ([1]; BAXP168G 65 nM, no BIM-BH3, no 2t16): 260 mP
Compound: recombinant human BAX, wild type (from UniProt Q07812) P168G

response ([1]; BAXα8 225 nM, 2t16 4.5 μM, no BIM-BH3): 200 mP | response ([1]; BAXα8 225 nM, BIM-BH3 0.15 μM, 2t16 4.5 μM): 260 mP | response ([1]; BAXα8 225 nM, BIM-BH3 0.15 μM, no 2t16): 260 mP | response ([1]; BAXα8 225 nM, no BIM-BH3, no 2t16): 200 mP
Compound: recombinant human BAX, wild type (from UniProt Q07812) L59C; C62S; C126S; L162C

Reference: PMC13046825, “A gated hydrophobic funnel within BAX binds bioactive lipids to potentiate pro-apoptotic function” (Nature Communications, 2024)
